The supplement of paper PMC7877785
± gives the uncertainty stated by the source.

Assay: self-splicing fitness, log relative to wild type (ln ratio); higher = more splicing; Tetrahymena group I intron in knt gene, E. coli kanamycin selection, DiMSum; sequences stand for … in CUCUCU…GGAGGGAAAAGUUAUCAGGCAUGCACCUGGUAGCUAGUCUUUAAACCAAUAGAUUGCAUCGGUUUAAAAGGCAAGACCGUCAAAUUGCGGGAAAGGGGUCAACAGCCGUUCAGUACCAAGUCUCAGGGGAAACUUUGAGAUGGCCUUGCAAAGGGUAUGGUAAUAAGCUGACGGACAUGGUCCUAACCACGCAGCCAAGUCCUAAGUCAACAGAUCUUCUGUUGAUAUGGAUGCAGUUCACAGACUAAAUGUCGGUCGGGGAAGAUGUAUUCUUCUCAUAAGAUAUAGUCGGACCUCUCCUUAAUGGGAGCUAGCGGAUGAAGUGAUGCAACACUGGAGCCGCUGGGAACUAAUUUGUAUGCGAAAGUAUAUUGAUUAGUUUUGGAGUACUCGUGGUCG
In short: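 Fitness was computed with DiMSum as the error-weighted combination of replicate fold changes, kanamycin versus none, each normalised to wild type. The library randomised all eight intron nucleotides of the P1ex region, with the intron placed in the knt kanamycin-resistance gene on pET-22b(+) in E. coli BL21(DE3). Six replicate transformations were grown overnight at 37°C or 30°C on LB agar with or without 25 μg/mL kanamycin, plus 100 μg/mL carbenicillin, 50 μM IPTG and 0.2% rhamnose. Pooled colonies were amplicon-sequenced on an Illumina HiSeq 2500.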

Sequence	self-splicing fitness (ln) (30 °C)	self-splicing fitness (ln) (37 °C)
CAUAAGCAAUAUUACGUCGC	-4.06 ± 0.18	-3.2 ± 0.17
CAUAAGCAAUAUUACGUGCG	-1.15 ± 0.079	-0.792 ± 0.098
CAUAAGCAAUAUUACGUGGA	-3.5 ± 0.22	-2.53 ± 0.21
CAUAAGCAAUAUUACGUUGG	-2.6 ± 0.095	-1.26 ± 0.094
CAUAAGCAAUAUUACGUUGU	-3.55 ± 0.15	-2.98 ± 0.18
CAUCAGCAAUAUUACGAUCC	-1.56 ± 0.12	-0.817 ± 0.16
CAUCAGCAAUAUUACGCACA	-0.992 ± 0.098	-1.21 ± 0.11
CAUCAGCAAUAUUACGCCCG	-0.306 ± 0.12	0.0609 ± 0.15
CAUCAGCAAUAUUACGCCGU	-2.51 ± 0.11	-1.13 ± 0.15
CAUCAGCAAUAUUACGCGAA	-3.13 ± 0.14	-1.93 ± 0.12
CAUCAGCAAUAUUACGCGCA	-1.21 ± 0.1	-0.493 ± 0.12
CAUCAGCAAUAUUACGCGGC	-3.39 ± 0.2	-2.8 ± 0.29
CAUCAGCAAUAUUACGCUAG	-0.614 ± 0.075	-0.102 ± 0.093
CAUCAGCAAUAUUACGGAGC	-3.44 ± 0.31	-2.1 ± 0.31
CAUCAGCAAUAUUACGGCGA	-3.11 ± 0.28	-1.27 ± 0.15
CAUCAGCAAUAUUACGGCUA	-2.82 ± 0.2	-1.44 ± 0.16
CAUCAGCAAUAUUACGGGGA	-2.59 ± 0.14	-1.22 ± 0.12
CAUCAGCAAUAUUACGUACC	-2.74 ± 0.3	-1.63 ± 0.28
CAUCAGCAAUAUUACGUAGC	-3.39 ± 0.21	-1.98 ± 0.19
CAUCAGCAAUAUUACGUCUA	-2.35 ± 0.095	-1.58 ± 0.08
CAUCAGCAAUAUUACGUGCC	-2.97 ± 0.16	-2.47 ± 0.24
CAUCAGCAAUAUUACGUUCG	0.13 ± 0.046	-0.286 ± 0.063
CAUCAGCAAUAUUACGUUGA	-3 ± 0.15	-3.46 ± 0.24
CAUGAGCAAUAUUACGAAAU	-2.72 ± 0.3	-3.25 ± 0.43
CAUGAGCAAUAUUACGAAUA	-1.59 ± 0.18	-2.72 ± 0.4

Sequence	self-splicing fitness (ln) (30 °C)	self-splicing fitness (ln) (37 °C)
CAUGAGCAAUAUUACGACAA	–	-1.36 ± 0.33
CAUGAGCAAUAUUACGACGU	-4.25 ± 0.39	-0.969 ± 0.2
CAUGAGCAAUAUUACGACUC	-3.85 ± 0.3	-3.38 ± 0.39
CAUGAGCAAUAUUACGAGUG	-2.67 ± 0.13	-3 ± 0.21
CAUGAGCAAUAUUACGAGUU	–	-2.6 ± 0.24
CAUGAGCAAUAUUACGAUAC	-2.93 ± 0.35	–
CAUGAGCAAUAUUACGAUCU	-2.9 ± 0.36	-2.37 ± 0.3
CAUGAGCAAUAUUACGAUUA	-3.08 ± 0.24	-2.02 ± 0.21
CAUGAGCAAUAUUACGCCAA	-3.67 ± 0.41	-2.53 ± 0.36
CAUGAGCAAUAUUACGCUUA	-3.77 ± 0.43	-2.19 ± 0.25
CAUGAGCAAUAUUACGGAAG	-1.47 ± 0.077	-0.61 ± 0.1
CAUGAGCAAUAUUACGGCAG	-0.481 ± 0.086	-0.96 ± 0.14
CAUGAGCAAUAUUACGGGAG	-1 ± 0.095	-1.54 ± 0.13
CAUGAGCAAUAUUACGUACA	-3.1 ± 0.22	-2.17 ± 0.3
CAUGAGCAAUAUUACGUAUA	-3.31 ± 0.3	-2.2 ± 0.21
CAUGAGCAAUAUUACGUAUU	-3.86 ± 0.46	-0.455 ± 0.16
CAUGAGCAAUAUUACGUCGA	-2.57 ± 0.33	–
CAUGAGCAAUAUUACGUCUU	-4.56 ± 0.34	-2.53 ± 0.25
CAUGAGCAAUAUUACGUGUA	-3.33 ± 0.21	-2.1 ± 0.15
CAUGAGCAAUAUUACGUUCA	-3.67 ± 0.26	-2.29 ± 0.17
CAUGAGCAAUAUUACGUUCG	-1.33 ± 0.13	-0.161 ± 0.14
CAUGAGCAAUAUUACGUUUA	-3.69 ± 0.21	-2.84 ± 0.2
CAUUAGCAAUAUUACGACGC	-1.73 ± 0.39	–
CAUUAGCAAUAUUACGCAGU	-3.73 ± 0.18	-2.77 ± 0.22
CAUUAGCAAUAUUACGCCAG	-0.337 ± 0.094	0.267 ± 0.12

Sequence	self-splicing fitness (ln) (30 °C)	self-splicing fitness (ln) (37 °C)
CAUUAGCAAUAUUACGCCCA	-2.43 ± 0.2	-1.47 ± 0.24
CAUUAGCAAUAUUACGGAAG	-0.396 ± 0.1	-0.104 ± 0.12
CAUUAGCAAUAUUACGGGAG	-1.46 ± 0.12	-1.09 ± 0.11
CAUUAGCAAUAUUACGUGAC	-3.18 ± 0.26	-1.58 ± 0.33
CAUUAGCAAUAUUACGUUCU	-2.56 ± 0.15	-2.62 ± 0.16
CCAAAGCAAUAUUACGACCU	-3.31 ± 0.21	-3.23 ± 0.38
CCAAAGCAAUAUUACGACUU	-3.77 ± 0.16	-3.01 ± 0.2
CCAAAGCAAUAUUACGAGCC	-3.2 ± 0.21	-2.07 ± 0.19
CCAAAGCAAUAUUACGCCUC	-3.33 ± 0.29	-2.52 ± 0.32
CCAAAGCAAUAUUACGCGGU	-4.85 ± 0.29	-1.78 ± 0.21
CCAAAGCAAUAUUACGCUAC	-2.17 ± 0.23	-1.58 ± 0.27
CCAAAGCAAUAUUACGCUAG	-3.78 ± 0.2	-2.4 ± 0.16
CCAAAGCAAUAUUACGCUCC	-1.01 ± 0.2	-1.74 ± 0.36
CCAAAGCAAUAUUACGGAAA	-1.03 ± 0.26	-3 ± 0.38
CCAAAGCAAUAUUACGGAAC	–	-2.53 ± 0.36
CCAAAGCAAUAUUACGGAAG	-2 ± 0.056	-1.11 ± 0.074
CCAAAGCAAUAUUACGGCAC	-4.07 ± 0.24	-2.89 ± 0.21
CCAAAGCAAUAUUACGGCCC	-3.57 ± 0.43	–
CCAAAGCAAUAUUACGGCUG	-0.987 ± 0.069	-0.917 ± 0.088
CCAAAGCAAUAUUACGUAGG	-3.85 ± 0.18	-1.66 ± 0.12
CCAAAGCAAUAUUACGUAGU	-3.67 ± 0.15	-3.14 ± 0.14
CCAAAGCAAUAUUACGUAUU	-4.14 ± 0.13	-2.71 ± 0.12
CCAAAGCAAUAUUACGUCUU	-4.12 ± 0.21	-2.43 ± 0.14
CCAAAGCAAUAUUACGUGAU	-3.5 ± 0.21	-3.14 ± 0.24
CCAAAGCAAUAUUACGUGGG	-2.85 ± 0.12	-2.9 ± 0.17

Sequence	self-splicing fitness (ln) (30 °C)	self-splicing fitness (ln) (37 °C)
CCACAGCAAUAUUACGAGGA	-3.8 ± 0.18	-1.32 ± 0.12
CCACAGCAAUAUUACGAGGU	-4.41 ± 0.2	-2.81 ± 0.16
CCACAGCAAUAUUACGAUCA	-2.69 ± 0.33	-1.98 ± 0.28
CCACAGCAAUAUUACGAUCU	-3.57 ± 0.16	-2.43 ± 0.16
CCACAGCAAUAUUACGCAAA	-2.03 ± 0.22	-3.24 ± 0.32
CCACAGCAAUAUUACGCACC	-2.62 ± 0.28	-1.71 ± 0.28
CCACAGCAAUAUUACGCCCG	-0.882 ± 0.078	-0.0155 ± 0.09
CCACAGCAAUAUUACGCCCU	-2.75 ± 0.25	-2.08 ± 0.23
CCACAGCAAUAUUACGCCUU	-3.21 ± 0.17	-1.59 ± 0.14
CCACAGCAAUAUUACGCGAA	-3.53 ± 0.2	-3.29 ± 0.21
CCACAGCAAUAUUACGCGCA	-3.95 ± 0.3	-3.06 ± 0.24
CCACAGCAAUAUUACGCUCG	-1.34 ± 0.077	-0.135 ± 0.088
CCACAGCAAUAUUACGCUGG	-4.04 ± 0.22	-2.58 ± 0.2
CCACAGCAAUAUUACGGUAU	-3.97 ± 0.19	-2.6 ± 0.16
CCACAGCAAUAUUACGGUCA	-3.27 ± 0.21	-3.22 ± 0.34
CCACAGCAAUAUUACGGUUC	-3.39 ± 0.18	-2.27 ± 0.19
CCACAGCAAUAUUACGGUUU	-4.31 ± 0.19	-2.8 ± 0.16
CCACAGCAAUAUUACGUAAU	-3.17 ± 0.13	-2.41 ± 0.2
CCACAGCAAUAUUACGUACA	-2.84 ± 0.19	-2.96 ± 0.34
CCACAGCAAUAUUACGUAUG	-0.654 ± 0.047	-0.391 ± 0.065
CCACAGCAAUAUUACGUCCG	-0.456 ± 0.053	0.344 ± 0.068
CCACAGCAAUAUUACGUCGU	-4.38 ± 0.17	-3.14 ± 0.17
